Experimental data from patent publication US20100105622A1 (UNIVERSIDAD DE BARCELONA, published 2010).

Biological target: Bovine Serum Albumin (BSA) (bovine, UniProt P02769 25-607)
Assay: ELISA, BSA coated on the plate, rsCD6 added at several concentrations, detected with biotin-labeled anti-CD6 mAb (MAE) and streptavidin-HRP
Experimental: Twelve μg of LPS purified from E. coli O111:B4 (Sigma), Zymosan from Saccharomyces cerevisae (Sigma), peptidoglycan purified from S. aureus (Fluka) or Bovine Serum Albumin (BSA), were used to coat 96-well microtiter plates (Nunc, Roskilde, Denmark) in PBS, overnight at 4° C. Non-specific binding to the wells was prevented by the addition of PBS containing 1% BSA for 1 h at room temperature. Several concentrations of rsCD6 were then added to the wells and incubated for 3 h at room temperature. Bound protein was detected by the addition of a 1:200 dilution of biotin-labeled mAb anti-CD6 (MAE) for 1 h at RT, followed by a 1:1000 dilution of HRP-labeled streptavidin (DAKO, Glostrup, Denmark), which was incubated for 30 min at RT. Between each incubation step, unbound protein or HRP-streptavidin was washed off three times with PBS plus 0.01% Tween-20. Color was developed by adding 3,3′,5,5′-tetramethylbenzidine liquid substrate (Sigma), and the absorbance was read at 405 nm. The assay was repeated three times with similar results.

Bovine Serum Albumin (BSA), sequence (P02769 25-607 limits assumed): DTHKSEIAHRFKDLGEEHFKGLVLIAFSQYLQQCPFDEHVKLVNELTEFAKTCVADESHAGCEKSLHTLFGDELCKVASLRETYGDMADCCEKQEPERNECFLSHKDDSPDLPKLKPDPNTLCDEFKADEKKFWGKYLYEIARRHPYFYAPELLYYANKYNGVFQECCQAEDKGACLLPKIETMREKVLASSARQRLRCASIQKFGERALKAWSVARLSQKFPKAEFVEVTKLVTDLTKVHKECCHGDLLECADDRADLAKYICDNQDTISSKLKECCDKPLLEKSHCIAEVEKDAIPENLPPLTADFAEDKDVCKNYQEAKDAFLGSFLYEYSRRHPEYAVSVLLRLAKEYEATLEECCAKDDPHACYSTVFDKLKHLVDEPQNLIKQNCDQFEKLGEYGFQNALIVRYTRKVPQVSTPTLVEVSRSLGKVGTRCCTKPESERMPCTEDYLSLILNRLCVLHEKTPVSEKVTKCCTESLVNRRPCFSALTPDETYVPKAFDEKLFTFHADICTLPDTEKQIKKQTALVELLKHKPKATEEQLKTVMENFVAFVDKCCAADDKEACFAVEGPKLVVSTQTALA

B1: rsCD6, recombinant soluble ectodomain of human CD6 (amino acids D25 to E384, immature protein numbering) (receptor, UniProt P30203 25-384, looked up)
chain: DQLNTSSAESELWEPGERLPVRLTNGSSSCSGTVEVRLEASWEPACGALWDSRAAEAVCRALGCGGAEAASQLAPPTPELPPPPAAGNTSVAANATLAGAPALLCSGAEWRLCEVVEHACRSDGRRARVTCAENRALRLVDGGGACAGRVEMLEHGEWGSVCDDTWDLEDAHVVCRQLGCGWAVQALPGLHFTPGRGPIHRDQVNCSGAEAYLWDCPGLPGQHYCGHKEDAGAVCSEHQSWRLTGGADRCEGQVEVHFRGVWNTVCDSEWYPSEAKVLCQSLGCGTAVERPKGLPHSLSGRMYYSCNGEELTLSNCSWRFNNSNLCSQSLAARVLCSASRSLHNLSTPEVPASVQTVTIE
notes: range 25-384; Used as unpurified serum-free culture supernatant to coat wells in the gp120 ELISA; also called recombinant soluble CD6; rCD6
- binding result: no binding
